From article PMC11648839 come the findings set out here.

Test [1] concerns the target PmoA-eGFP (subunit A of the particulate methane monooxygenase enzyme complex, eGFP at the C-terminus) (UniProt Q607G3). The test can be described thus: FRET or BRET; FRET-FLIM in living tobacco leaf epidermal cells; eGFP fusion as donor, mRFP fusion as acceptor; two-photon excitation at 920 nm, TCSPC; lifetime of the donor with acceptor compared with donor alone; region of interest on the nucleus. Background: In BRET a luciferase serves as donor, and the signal depends on an acceptor being close.

For test [2], the target named is eGFP-PmoA (subunit A of the particulate methane monooxygenase enzyme complex, eGFP at the N-terminus) (UniProt Q607G3). The description is as above.

In the case of “mRFP-PmoC (subunit C of the particulate methane monooxygenase enzyme complex, mRFP at the N-terminus) (natural protein)”, in test [1], the average eGFP (donor) fluorescence lifetime with acceptor came to 2.2 ns and the Δ (reduction of donor lifetime against donor alone) amounted to 0.2 ns. For the same substance, in test [2], the average eGFP (donor) fluorescence lifetime with acceptor amounted to 2.2 ns and the Δ (reduction of donor lifetime against donor alone) was found to be 0.2 ns.

For the substance “PmoC-mRFP (subunit C of the particulate methane monooxygenase enzyme complex, mRFP at the C-terminus) (natural protein)”, in test [1], the average eGFP (donor) fluorescence lifetime with acceptor is 2.2 ns and the Δ (reduction of donor lifetime against donor alone) came out at 0.2 ns.
